Measurements as given in publication PMC2728291 (Journal of molecular biology, 2009).

B1: BLIP Asp49Ser mutant (natural protein)
chain: AGVMTGAKFTQIQFGMTRQQVLDIAGAENCETGGSFGDSIHCRGHAAGSYYAYATFGFTSAAADAKVDSKSQEKLLAPSAPTLTLAKFNQVTVGMTRAQVLATVGQGSCTTWSEYYPAYPSTAGVTLSLSCFDVDGYSSTGFYRGSAHLWFTDGVLQGKRQWDLV
B2: BLIP Trp112Arg mutant (natural protein)
chain: AGVMTGAKFTQIQFGMTRQQVLDIAGAENCETGGSFGDSIHCRGHAAGDYYAYATFGFTSAAADAKVDSKSQEKLLAPSAPTLTLAKFNQVTVGMTRAQVLATVGQGSCTTRSEYYPAYPSTAGVTLSLSCFDVDGYSSTGFYRGSAHLWFTDGVLQGKRQWDLV
B3: BLIP Glu31Gln mutant (natural protein)
chain: AGVMTGAKFTQIQFGMTRQQVLDIAGAENCQTGGSFGDSIHCRGHAAGDYYAYATFGFTSAAADAKVDSKSQEKLLAPSAPTLTLAKFNQVTVGMTRAQVLATVGQGSCTTWSEYYPAYPSTAGVTLSLSCFDVDGYSSTGFYRGSAHLWFTDGVLQGKRQWDLV
B4: BLIP Phe142Gly mutant (natural protein)
chain: AGVMTGAKFTQIQFGMTRQQVLDIAGAENCETGGSFGDSIHCRGHAAGDYYAYATFGFTSAAADAKVDSKSQEKLLAPSAPTLTLAKFNQVTVGMTRAQVLATVGQGSCTTWSEYYPAYPSTAGVTLSLSCFDVDGYSSTGGYRGSAHLWFTDGVLQGKRQWDLV
B5: BLIP Glu73Tyr mutant (natural protein)
chain: AGVMTGAKFTQIQFGMTRQQVLDIAGAENCETGGSFGDSIHCRGHAAGDYYAYATFGFTSAAADAKVDSKSQYKLLAPSAPTLTLAKFNQVTVGMTRAQVLATVGQGSCTTWSEYYPAYPSTAGVTLSLSCFDVDGYSSTGFYRGSAHLWFTDGVLQGKRQWDLV

Each binder was assayed against TEM-1 β-lactamase (UniProt P62593 24-286) (assay: enzyme inhibition assay).
Sequence of TEM-1 β-lactamase (P62593 24-286): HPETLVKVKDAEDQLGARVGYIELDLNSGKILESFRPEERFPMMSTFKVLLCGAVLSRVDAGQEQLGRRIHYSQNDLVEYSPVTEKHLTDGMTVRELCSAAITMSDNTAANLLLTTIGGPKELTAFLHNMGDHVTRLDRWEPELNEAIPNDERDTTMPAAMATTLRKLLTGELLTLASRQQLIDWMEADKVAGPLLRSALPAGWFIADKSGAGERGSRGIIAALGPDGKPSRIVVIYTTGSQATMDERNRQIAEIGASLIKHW

First: B1
Second: B2
The Ki of the first is 4.1-fold higher: 16 nM for the first, 3.9 nM for the second. The second binds more tightly here.

Compared with B3, B4 is 8.6-fold higher in Ki: 1.4 nM for the first, 12 nM for the second. The first binds more tightly here.

Binder B5 has a Ki of 3.7 nM.
